The assay has as its target T1, Histone H4 methylated peptide, SGRGK(me3)GGKGLGKGGAK (trimethyl-lysine K(me3) at K5).
T1 peptide: SGRGKGGKGLGKGGAK
Briefly: SPR.

One may read the Kd as the free concentration of one partner at which half of the binding sites on the other are occupied at equilibrium, for simple one-to-one binding. The low end stands for higher affinity, the high end for lower affinity.

B1: D6 Fab (Fab, V domains shown)
VH: QTVKESGGRLVTPGGTLTLTCTVSGFSLSRYAMSWVRQAPGEGLEYIGWINTYGSAYYASWVNGRFTISKTSTTMDLKMTSLTAADTATYFCVRWFADGGMDPWGPGTLVTVSS
VL: ALVLTQTPSPVSAAVGGAVSISCQSSQNIYKDNELSWYQQKPGQPPKLLIYKASTLASGVPSRFSGSGSGTQFTLTISGVQCDDAATYYCQGSRYNNGWDSGFGGGTEVVVK
Regarding B1, the Kd came to 870 µM.

B2: C9 Fab (Fab, V domains shown)
VH: QSVEESGGRLVTPGTPLTLTCTVSGFSLTSYDMSWVRQAPGKGLEYIGFISSTTGGTYYASWAKGRFTISKTSTTVDLKITSPTTEDTATYFCAAGSWYNMWGPGTLVTVSS
VL: AQVLTQTPSSVSAAVGGTVTINCQASQSVYNNNWLGWYQQKPGQPPKLLIYKASTLASGVPSRFRGSGSGTQFTLTISDVQCDDAATYYCAGGYNGNIFPFGGGTEVVVT
The molecule B2 showed an equilibrium dissociation constant (Kd) of 1600 µM. Compared with the last molecule, the Kd is about 1.8-fold higher.

For the origin of these results see paper PMC7948472 (2020).
